The text below walks through data of US9339557B2, “Photosensitizer-metal nanoparticle complex and composition containing the complex for photodynamic therapy or diagnosis” (NATIONAL CANCER CENTER, priority 2009, dated 2016).

Common to all, as to assay type: cell-based, human
One series relates to BT20 cells. As to the kind of experiment: Cell viability after photodynamic therapy (MTT), cell line BT20. The settings on record: 5 μM equivalent of photosensitizer, 15 hours, +PDT laser 670 nm, 40 mW/cm^2, 10 J/cm^2, MTT after 24 hours. How it is done:
9,000 BT20 cells were seeded in each well of 96-well plates. The next day, the photosensitizer-polypeptide conjugate prepared in Preparation Example 2 and the photosensitizer-metal nanoparticle complex prepared in Preparation Example 2 were diluted with a cell culture medium, thereby preparing an MMP2 probe (MMP2P) solution and a photosensitizer-metal nanoparticle complex (MMP2P-GNR) solution, which have a final concentration corresponding to 5 μM equivalent weight of the photosensitizer. Each solution was added at 200 μl per well to some wells, and the plate was maintained at 37° C. for 15 hours. Meanwhile, for the control group, the same volume of a fresh culture medium in which the photosensitizer was not included was added. Afterwards, the cells were washed twice with a cell culture medium, and for a photodynamic therapy (PDT) group, photodynamic therapy was performed using laser at 670 nm under conditions including a light dose density of 40 mW/cm^2, and a light dose of 10 J/cm^2. After 24 hours, cell viability was measured by MTT analysis.

The subject of a further series is HT1080 cells. As to the kind of experiment: Cell viability after photodynamic therapy (MTT), cell line HT1080. The conditions noted are these: 5 μM equivalent of photosensitizer, 15 hours, +PDT laser 670 nm, 40 mW/cm^2, 10 J/cm^2, MTT after 24 hours. How it is done:
For in vitro phototoxicity tests 9,000 HT1080 cells were seeded in each well of 96-well plates. The next day, the photosensitizer-polypeptide conjugate (MMP2P) prepared in Preparation Example 2 and the photosensitizer-metal nanoparticle complex (MMP2P-GNR) prepared in Preparation Example 3 were diluted with a cell culture medium, respectively, thereby preparing an MMP2 probe (MMP2P) solution and a photosensitizer-metal nanoparticle complex (MMP2P-GNR) solution, each of which has a final concentration corresponding to 5 μM equivalent weight of the photosensitizer. Each solution was added at 200 μl per well to some wells, and the plate was maintained at 37° C. for 15 hours. Meanwhile, for the control group, the same volume of a fresh culture medium in which the photosensitizer is not included was added to the other wells. Afterwards, the cells were washed twice with a cell culture medium, and for a photodynamic therapy (PDT) group, photodynamic therapy was carried out using laser at 670 nm under conditions including a dose density of 40 mW/cm^2 and a dose of 10 J/cm^2. After 24 hours, cell viability was measured by MTT analysis.

Series [1] has as its system HT1080 cells overexpressing MMP2. As to the kind of experiment: Fluorescence activation of photosensitizer-metal nanoparticle complex, confocal microscopy. The settings on record: HT1080 (MMP2 overexpressing) compared with BT20 (MMP2 underexpressing); 5 μM equivalent of photosensitizer, 15 hours, 37° C.; Ex. 405 nm, Em. 646-753 nm. How it is done: HT1080 cells (human fibrosarcoma cell line) overexpressing MMP2 and BT20 cells (human mammary adenocarcinoma cell line) underexpressing MMP2 (see Bremer C. et al., Nature Medicine 7(6) 743-748, 2001) were obtained from ATCC (Manassas, Va.). MMP2-positive HT1080 (90,000 cells) and MMP2-negative BT20 cells (90,000 cells) in culture media were seeded into each wells of LabTek II Chambered Coverglass. Afterwards, the photosensitizer-metal nanoparticle complex solution prepared in Preparation Example 2 was diluted with a culture medium to have 5 μM equivalent weight of the photosensitizer, and added at 600 μl per well. The cells were incubated in an incubator at 37° C. for 15 hours. After the culture medium including the complex was removed, and the cells were washed three times with a fresh culture medium, fluorescence was observed using a confocal microscope (Ex. 405 nm, Em. 646-753 nm).

For MMP2P-GNR (CGGPLGVRGK), the values for the cell viability in the series with BT20 cells and in the series with HT1080 cells were 63% and 16%, respectively. In addition, the fluorescence in cells result in series [1] is reported as “much stronger fluorescence”.
